Laboratory results taken from patent US20250368684A1, “NEW EGFRVIII-BINDING PEPTIDES, CONJUGATES AND USES THEREOF” (NANOTHERA BIOSCIENCES, INC., priority 2021, published 2025).
No end group written: not given here. *: point of attachment. FITC = O=C1OC2(c3ccc(O)cc3Oc3cc(O)ccc32)c2ccc(NC(=S)*)cc21; Ahx = NCCCCCC(=O)O

How the values were obtained:
[1] = target: T1, CLTH/EGFRvIII cells expressing hEGFRvIII (Homo sapiens, UniProt P00533, DELINS30-297G); assay: Flow cytometry binding of phage displayed peptides on hEGFRvIII cells; conditions: phage displayed peptide, vs hEGFR WT and 293T cells
T1 construct: host or cells: CLTH/EGFRvIII, established from human embryo kidney cells
Excerpt: (§1) 293T human embryo kidney cells (Sigma; #85120602-1VL), CLTH/EGFR WT cells (Celther; #CL 01010-CLTH) and CLTH/EGFRvIII cells (Celther; #CL 01001-CLTH) were purchased from Sigma and Celther accordingly. CLTH/EGFR WT and CLTH/EGFRvIII cell lines are established from human embryo kidney cells to stably express EGFR WT and EGFRvIII proteins respectively. The three types of cells were maintained in Dulbecco's modified Eagle media (high glucose) supplemented with 10% fetal bovine serum (FBS), 100 U/mL penicillin, […] streptomycin and 1% MEM NEAA. The cells were cultured at 37° C. in a humidified atmosphere containing 5% CO2.
Cell cultures and flow cytometry experiments with phages or peptides were performed by Institut Mondor de Recherche Biomédicale (IMRB U955, France). […] Anti-IgG1 conjugated to phycoerythrin (PE) (Miltenyi Biotec) was used as a secondary antibody to read the fluorescence of PE. […]
On phages. […] Cells were analyzed by flow cytometry on a MACSQuant Analyser 16 (Miltenyi Biotec) using the MACS Quantify software to acquire and process the data. Viobility™ 405/520 fixable dye was excited at 405 nm and fluorescence was collected with the 525/50 nm filter. PE was excited at 488 nm and fluorescence was collected with the 579/34 nm filter. Viable cells were gated, and PE fluorescence intensity was recorded.

[2] = target: T2, EGFRvIII cells (expressing EGFRvIII) (Homo sapiens, UniProt P00533, DELINS30-297G); assay: Flow cytometry cellular binding of FITC-Ahx-peptides on EGFRvIII cells; conditions: for Normalized MFI vIII: 10 µM FITC-Ahx-peptide, 20 min at RT, EGFRvIII cells
T2 construct: host or cells: CLTH/EGFRvIII, established from human embryo kidney cells
Excerpt: as §1
(§2) On FITC-Ahx-peptides. Flow cytometry analysis was also performed to quantitatively analyze the binding affinity of the synthetized peptides to the different cell types. Briefly, 293T, CLTH/EGFR WT and CLTH/EGFRvIII cells (100 000 cells, 500 μL) were plated in 24-well plates and incubated overnight at 37° C. in a humidified atmosphere containing 5% CO2 overnight. […] Cells were analyzed by flow cytometry on a MACSQuant Analyser 16 (Miltenyi Biotec) using the MACS Quantify software to acquire and process the data. LIVE/DEAD™ Fixable dye was excited at 640 nm and fluorescence was collected with the 785/62 nm filter. FITC was excited at 488 nm and fluorescence was collected with the 525/50 nm filter. Viable cells were gated, FITC fluorescence intensity was recorded and the mean fluorescence intensity (MFI) was measured. MFI values were then normalized by substracting MFI from blank cells and dividing by the correction factor determined using a spectrofluorimeter.
(§3) Since FITC fluorescence can be impacted by the nature of the amino acids in the peptide sequence and since the conjugation rate of FITC in the peptide synthesis can fluctuate, it was needed to measure a correction factor according to the fluorescence intensity of each peptide. As flow cytometry cannot analyze fluorescence of small molecules, a spectrofluorimeter was used in similar conditions (excitation and emission) to the flow cytometry conditions.

[3] = target: T3, EGFR WT cells (expressing EGFR WT) (Homo sapiens, UniProt P00533); assay: Flow cytometry cellular binding of FITC-Ahx-peptides on EGFR WT cells; conditions: 10 µM FITC-Ahx-peptide, 20 min at RT
T3 construct: host or cells: CLTH/EGFR WT, established from human embryo kidney cells
Excerpt: as §1
as §2, with “types.” for “types. Briefly, 293T, CLTH/EGFR WT and CLTH/EGFRvIII cells (100 000 cells, 500 μL) were plated in 24-well plates and incubated overnight at 37° C. in a humidified atmosphere containing 5% CO2 overnight.”, “spectrofluorimeter. […]” for “spectrofluorimeter.”

293T cells = assay: Flow cytometry cellular binding of FITC-Ahx-peptides on 293T cells; parameters: species or system human; conditions: 10 µM FITC-Ahx-peptide, 20 min at RT
Excerpt: as §1, §2
as §3, with “conditions. […] Linear regressions were determined for each peptide. […]” for “conditions.”

[4] = target: T4, human EGF receptor variant III (EGFRvIII) on CLTH/EGFRvIII cells (human, UniProt P00533 25-1210); assay: flow cytometry, phage on CLTH/EGFRvIII cells, anti-M13-biotin plus anti-biotin-PE
T4 construct: whole, on cells

[5] = target: human wild type EGF receptor (EGFR WT) on CLTH/EGFR WT cells (human) (UniProt P00533); assay: flow cytometry, 10 uM FITC-Ahx-peptide, 20 min RT, CLTH/EGFR WT cells; MFI minus blank cells, divided by correction factor
[6] = target: human EGF receptor variant III (EGFRvIII) on CLTH/EGFRvIII cells (human) (UniProt P00533); assay: flow cytometry, 10 uM FITC-Ahx-peptide, 20 min RT, CLTH/EGFRvIII cells; MFI minus blank cells, divided by correction factor
[7] = target: human EGF receptor variant III (EGFRvIII) on CLTH/EGFRvIII cells (human) (UniProt P00533); assay: flow cytometry, normalized MFI on EGFRvIII cells over normalized MFI on EGFR WT cells

## NESGITRIALQD (Peptide selected from the NGS analysis, not showing specific binding to hEGFRvIII cells in flow cytometry) [peptide selected from NGS analysis of biopanning]
[1]
  specific binding to hEGFRvIII: did not show specific binding

## FITC-Ahx-YHWYGYTPENVI-CONH2: literature control peptide YHWYGYTPENVI (SEQ ID NO:6) linked to the FITC-Ahx tag ({FITC-Ahx}-YHWYGYTPENVI-NH2; SMILES CC[C@H](C)[C@H](NC(=O)[C@@H](NC(=O)[C@H](CC(N)=O)NC(=O)[C@H](CCC(=O)O)NC(=O)[C@@H]1CCCN1C(=O)[C@@H](NC(=O)[C@H](Cc1ccc(O)cc1)NC(=O)CNC(=O)[C@H](Cc1ccc(O)cc1)NC(=O)[C@H](Cc1c[nH]c2ccccc12)NC(=O)[C@H](Cc1c[nH]cn1)NC(=O)[C@H](Cc1ccc(O)cc1)NC(=O)CCCCCNC(=S)Nc1ccc2c(c1)C(=O)OC21c2ccc(O)cc2Oc2cc(O)ccc21)[C@@H](C)O)C(C)C)C(N)=O)
[2]
  Normalized MFI vIII: 9.7
[3]
  Normalized MFI WT: 4.5
293T cells
  Normalized MFI 293T: 7.6

## FITC-Ahx-VLGREEWSTSW-CONH2: VLGREEWSTSYW conjugated with FITC at the N-terminus via 6-aminohexanoic acid (Ahx) linker
293T cells
  Normalized MFI 293T: 5.1

## LEKGNTLSTSTV (phage displayed; Peptide selected from the NGS analysis, not showing specific binding to hEGFRvIII cells in flow cytometry) [peptide selected from NGS analysis of biopanning]
[1]
  specific binding to hEGFRvIII: did not show specific binding

## FITC-Ahx-FALGEA-CONH2: literature control peptide FALGEA (SEQ ID NO:5) linked to the FITC-Ahx tag ({FITC-Ahx}-FALGEA-NH2; SMILES CC(C)C[C@H](NC(=O)[C@H](C)NC(=O)[C@H](Cc1ccccc1)NC(=O)CCCCCNC(=S)Nc1ccc2c(c1)C(=O)OC21c2ccc(O)cc2Oc2cc(O)ccc21)C(=O)NCC(=O)N[C@@H](CCC(=O)O)C(=O)N[C@@H](C)C(N)=O)
[2]
  Normalized MFI vIII: 1.8
[2]; normalized MFI of vIII cell line over WT cell line
  Normalized MFI ratio VIII/WT: 2.6
[3]
  Normalized MFI WT: 0.7
293T cells
  Normalized MFI 293T: 0.9

B1: LEKGNTLSTSTV phage displayed peptide (peptide)
peptide: LEKGNTLSTSTV
modifications: also: displayed on M13 phage coat protein
notes: not shown: M13 coat protein of the Ph.D.-12 library that carries the peptide
[4]
  binding result: no binding

B2: NESGITRIALQD phage displayed peptide (peptide)
peptide: NESGITRIALQD
modifications: also: displayed on M13 phage coat protein
notes: as for B1
[4]
  binding result: no binding

B3: FITC-Ahx-…-CONH2 (peptide)
peptide: {FITC-Ahx}-YHWYGYTPENVI-NH2
SMILES: CC[C@H](C)[C@H](NC(=O)[C@@H](NC(=O)[C@H](CC(N)=O)NC(=O)[C@H](CCC(=O)O)NC(=O)[C@@H]1CCCN1C(=O)[C@@H](NC(=O)[C@H](Cc1ccc(O)cc1)NC(=O)CNC(=O)[C@H](Cc1ccc(O)cc1)NC(=O)[C@H](Cc1c[nH]c2ccccc12)NC(=O)[C@H](Cc1c[nH]cn1)NC(=O)[C@H](Cc1ccc(O)cc1)NC(=O)CCCCCNC(=S)Nc1ccc2c(c1)C(=O)OC21c2ccc(O)cc2Oc2cc(O)ccc21)[C@@H](C)O)C(C)C)C(N)=O
[5]
  Normalized MFI: 4.5

B4: FITC-Ahx-FALGEA-CONH2 (peptide)
peptide: {FITC-Ahx}-FALGEA-NH2
SMILES: CC(C)C[C@H](NC(=O)[C@H](C)NC(=O)[C@H](Cc1ccccc1)NC(=O)CCCCCNC(=S)Nc1ccc2c(c1)C(=O)OC21c2ccc(O)cc2Oc2cc(O)ccc21)C(=O)NCC(=O)N[C@@H](CCC(=O)O)C(=O)N[C@@H](C)C(N)=O
[6]
  Normalized MFI: 1.8
[7]
  Normalized MFI ratio vIII/WT: 2.6
